From the supplement of paper PMC9112550, “Optimization of the antimicrobial peptide Bac7 by deep mutational scanning” (BMC Biology, 2022)

Tested on: Escherichia coli TOP10
Assay: shrunken log2 fold change of peptide-encoding DNA abundance (4.5 h post-induction vs induction); higher = less antimicrobial activity (less host growth inhibition)
Details: time post-induction: 4.5 h; library: site-saturation at positions 5, 18, 19, 20
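Further: peptides expressed intracellularly from a pBAD plasmid library in pooled LB shake-flask culture, induced with 0.3% L-arabinose, DNA abundance read by NGS, three biological replicates, DESeq2 with apeglm shrinkage.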

## RRIRGRPPRLPRPRPRPECCPRP
  shrunken log2 fold change: 1.52

## RRIRPRPPRLPRPRPRPLCCPRP
  shrunken log2 fold change: -0.105

## RRIRCRPPRLPRPRPRPYPEPRP
  shrunken log2 fold change: -0.0664

## RRIRERPPRLPRPRPRPRGPPRP
  shrunken log2 fold change: 0.662

## RRIRGRPPRLPRPRPRPLKHPRP
  shrunken log2 fold change: 0.0581

## RRIRQRPPRLPRPRPRPCAPPRP
  shrunken log2 fold change: 0.226

## RRIRRRPPRLPRPRPRPEQCPRP
  shrunken log2 fold change: -0.00836

## RRIRWRPPRLPRPRPRPTYDPRP
  shrunken log2 fold change: 1.48

## RRIRVRPPRLPRPRPRPKPKPRP
  shrunken log2 fold change: 0.312

## RRIRARPPRLPRPRPRPFMMPRP
  shrunken log2 fold change: -0.105

## RRIRRRPPRLPRPRPRPVTTPRP
  shrunken log2 fold change: 0.48

## RRIRERPPRLPRPRPRPSKMPRP
  shrunken log2 fold change: -0.141

## RRIRRRPPRLPRPRPRPTPFPRP
  shrunken log2 fold change: 0.632

## RRIRARPPRLPRPRPRPHFTPRP
  shrunken log2 fold change: 0.345

## RRIRIRPPRLPRPRPRPAEAPRP
  shrunken log2 fold change: 0.0803

## RRIRGRPPRLPRPRPRPQRWPRP
  shrunken log2 fold change: 0.293

## RRIRNRPPRLPRPRPRPLDWPRP
  shrunken log2 fold change: -0.0554

## RRIRFRPPRLPRPRPRPIFSPRP
  shrunken log2 fold change: -0.341

## RRIRKRPPRLPRPRPRPWDWPRP
  shrunken log2 fold change: 0.504

## RRIRIRPPRLPRPRPRPMVNPRP
  shrunken log2 fold change: -0.294

## RRIRVRPPRLPRPRPRPWMLPRP
  shrunken log2 fold change: -0.2

## RRIRGRPPRLPRPRPRPILAPRP
  shrunken log2 fold change: 0.492

## RRIRFRPPRLPRPRPRPVWNPRP
  shrunken log2 fold change: -0.0763

## RRIRERPPRLPRPRPRPGRNPRP
  shrunken log2 fold change: -0.237

## RRIRLRPPRLPRPRPRPLGEPRP
  shrunken log2 fold change: 0.013

## RRIRKRPPRLPRPRPRPALRPRP
  shrunken log2 fold change: 0.455

## RRIRERPPRLPRPRPRPYQQPRP
  shrunken log2 fold change: -0.228

## RRIRRRPPRLPRPRPRPKCGPRP
  shrunken log2 fold change: 0.0229

## RRIRIRPPRLPRPRPRPLHYPRP
  shrunken log2 fold change: -0.779

## RRIRERPPRLPRPRPRPYFNPRP
  shrunken log2 fold change: -0.583

## RRIRDRPPRLPRPRPRPVGLPRP
  shrunken log2 fold change: 0.627

## RRIRARPPRLPRPRPRPHAFPRP
  shrunken log2 fold change: 0.231

## RRIRVRPPRLPRPRPRPCPTPRP
  shrunken log2 fold change: -0.17

## RRIRDRPPRLPRPRPRPIEPPRP
  shrunken log2 fold change: -0.0685

## RRIRRRPPRLPRPRPRPVHMPRP
  shrunken log2 fold change: 2.19

## RRIRVRPPRLPRPRPRPSGTPRP
  shrunken log2 fold change: -0.298

## RRIRQRPPRLPRPRPRPNMNPRP
  shrunken log2 fold change: -0.528

## RRIRTRPPRLPRPRPRPYGDPRP
  shrunken log2 fold change: 0.00839

## RRIRSRPPRLPRPRPRPDHMPRP
  shrunken log2 fold change: -0.00607

## RRIRLRPPRLPRPRPRPVLLPRP
  shrunken log2 fold change: 0.0821

## RRIRNRPPRLPRPRPRPLLGPRP
  shrunken log2 fold change: 0.232

## RRIRARPPRLPRPRPRPTKHPRP
  shrunken log2 fold change: 0.217

## RRIRNRPPRLPRPRPRPKIEPRP
  shrunken log2 fold change: -0.0398

## RRIRTRPPRLPRPRPRPVQAPRP
  shrunken log2 fold change: 0.0641

## RRIRLRPPRLPRPRPRPKIPPRP
  shrunken log2 fold change: -0.292

## RRIRMRPPRLPRPRPRPSFTPRP
  shrunken log2 fold change: -0.0116

## RRIRTRPPRLPRPRPRPEPSPRP
  shrunken log2 fold change: 0.534

## RRIRERPPRLPRPRPRPCSGPRP
  shrunken log2 fold change: -0.434

## RRIRMRPPRLPRPRPRPNGVPRP
  shrunken log2 fold change: 0.194

## RRIRQRPPRLPRPRPRPKHPPRP
  shrunken log2 fold change: -0.0928

## RRIRKRPPRLPRPRPRPETYPRP
  shrunken log2 fold change: -0.00198

## RRIRHRPPRLPRPRPRPPMAPRP
  shrunken log2 fold change: 0.197

## RRIRQRPPRLPRPRPRPCQTPRP
  shrunken log2 fold change: 0.00707

## RRIRFRPPRLPRPRPRPKSPPRP
  shrunken log2 fold change: -0.143

## RRIRTRPPRLPRPRPRPYRTPRP
  shrunken log2 fold change: 0.0638

## RRIRLRPPRLPRPRPRPAQCPRP
  shrunken log2 fold change: -0.23

## RRIRKRPPRLPRPRPRPVWCPRP
  shrunken log2 fold change: -0.0673

## RRIRLRPPRLPRPRPRPDTYPRP
  shrunken log2 fold change: -0.93

## RRIRCRPPRLPRPRPRPIMAPRP
  shrunken log2 fold change: -0.236

## RRIRDRPPRLPRPRPRPAAFPRP
  shrunken log2 fold change: 0.549

## RRIRCRPPRLPRPRPRPMLFPRP
  shrunken log2 fold change: 0.545

## RRIRSRPPRLPRPRPRPNGPPRP
  shrunken log2 fold change: -0.42

## RRIRKRPPRLPRPRPRPHTWPRP
  shrunken log2 fold change: 0.0484

## RRIRGRPPRLPRPRPRPPYKPRP
  shrunken log2 fold change: 0.18

## RRIRYRPPRLPRPRPRPAKMPRP
  shrunken log2 fold change: -0.329

## RRIRPRPPRLPRPRPRPDIYPRP
  shrunken log2 fold change: -0.0306

## RRIRNRPPRLPRPRPRPRHWPRP
  shrunken log2 fold change: 0.133

## RRIRYRPPRLPRPRPRPEAHPRP
  shrunken log2 fold change: -0.281

## RRIRTRPPRLPRPRPRPMIEPRP
  shrunken log2 fold change: -0.244

## RRIRPRPPRLPRPRPRPSLRPRP
  shrunken log2 fold change: 0.0129

## RRIRGRPPRLPRPRPRPWFVPRP
  shrunken log2 fold change: -0.314

## RRIRGRPPRLPRPRPRPGAYPRP
  shrunken log2 fold change: 0.339

## RRIRMRPPRLPRPRPRPIVEPRP
  shrunken log2 fold change: 0.456

## RRIRRRPPRLPRPRPRPSFKPRP
  shrunken log2 fold change: -0.117

## RRIRERPPRLPRPRPRPLAEPRP
  shrunken log2 fold change: 0.17

## RRIRARPPRLPRPRPRPTDGPRP
  shrunken log2 fold change: 0.0971

## RRIRWRPPRLPRPRPRPNANPRP
  shrunken log2 fold change: 0.109

## RRIRPRPPRLPRPRPRPVPNPRP
  shrunken log2 fold change: 0.14

## RRIRCRPPRLPRPRPRPNVWPRP
  shrunken log2 fold change: 0.0481

## RRIRLRPPRLPRPRPRPNKMPRP
  shrunken log2 fold change: -0.158

## RRIRHRPPRLPRPRPRPPAEPRP
  shrunken log2 fold change: 0.0536

## RRIRDRPPRLPRPRPRPLKSPRP
  shrunken log2 fold change: 0.00491

## RRIRIRPPRLPRPRPRPQFCPRP
  shrunken log2 fold change: -0.32

## RRIRWRPPRLPRPRPRPPGFPRP
  shrunken log2 fold change: 0.209

## RRIRERPPRLPRPRPRPQAYPRP
  shrunken log2 fold change: -0.131

## RRIRRRPPRLPRPRPRPRFVPRP
  shrunken log2 fold change: 0.375

## RRIRCRPPRLPRPRPRPQNWPRP
  shrunken log2 fold change: -0.0693

## RRIRGRPPRLPRPRPRPHHEPRP
  shrunken log2 fold change: 0.325

## RRIRYRPPRLPRPRPRPQMQPRP
  shrunken log2 fold change: -0.794

## RRIRCRPPRLPRPRPRPYEFPRP
  shrunken log2 fold change: -0.0684

## RRIRARPPRLPRPRPRPVGIPRP
  shrunken log2 fold change: -0.102

## RRIRHRPPRLPRPRPRPIWHPRP
  shrunken log2 fold change: -0.327

## RRIRHRPPRLPRPRPRPISAPRP
  shrunken log2 fold change: -0.0622

## RRIRERPPRLPRPRPRPPMAPRP
  shrunken log2 fold change: 0.149

## RRIRGRPPRLPRPRPRPMCNPRP
  shrunken log2 fold change: 0.31

## RRIRFRPPRLPRPRPRPSYEPRP
  shrunken log2 fold change: 1.66

## RRIRWRPPRLPRPRPRPALCPRP
  shrunken log2 fold change: 0.331

## RRIRQRPPRLPRPRPRPGQVPRP
  shrunken log2 fold change: 0.111

## RRIRHRPPRLPRPRPRPIPSPRP
  shrunken log2 fold change: -0.274

## RRIRHRPPRLPRPRPRPNALPRP
  shrunken log2 fold change: 0.0224

## RRIRSRPPRLPRPRPRPSFTPRP
  shrunken log2 fold change: -0.524

## RRIRHRPPRLPRPRPRPTQWPRP
  shrunken log2 fold change: 0.0126

## RRIRRRPPRLPRPRPRPKHWPRP
  shrunken log2 fold change: 0.334

## RRIRLRPPRLPRPRPRPEQGPRP
  shrunken log2 fold change: 1.07

## RRIRKRPPRLPRPRPRPAWPPRP
  shrunken log2 fold change: 0.675

## RRIRCRPPRLPRPRPRPKDFPRP
  shrunken log2 fold change: -0.0611

## RRIRARPPRLPRPRPRPCWVPRP
  shrunken log2 fold change: 0.237

## RRIRKRPPRLPRPRPRPKRNPRP
  shrunken log2 fold change: 0.689

## RRIRSRPPRLPRPRPRPCKDPRP
  shrunken log2 fold change: -0.153

## RRIRERPPRLPRPRPRPAQTPRP
  shrunken log2 fold change: 0.0281

## RRIRPRPPRLPRPRPRPVWNPRP
  shrunken log2 fold change: -0.109

## RRIRFRPPRLPRPRPRPPVKPRP
  shrunken log2 fold change: -0.00563

## RRIRWRPPRLPRPRPRPSASPRP
  shrunken log2 fold change: 0.363

## RRIRKRPPRLPRPRPRPSYWPRP
  shrunken log2 fold change: -0.144

## RRIRPRPPRLPRPRPRPRSGPRP
  shrunken log2 fold change: 0.0638

## RRIRTRPPRLPRPRPRPITCPRP
  shrunken log2 fold change: -0.223

## RRIRHRPPRLPRPRPRPWETPRP
  shrunken log2 fold change: -0.141

## RRIRQRPPRLPRPRPRPTHGPRP
  shrunken log2 fold change: 0.0759

## RRIRYRPPRLPRPRPRPQGPPRP
  shrunken log2 fold change: -0.0382

## RRIRQRPPRLPRPRPRPNCDPRP
  shrunken log2 fold change: 0.0233

## RRIRVRPPRLPRPRPRPRREPRP
  shrunken log2 fold change: 0.495

## RRIRYRPPRLPRPRPRPHRHPRP
  shrunken log2 fold change: -0.615

## RRIRARPPRLPRPRPRPVNCPRP
  shrunken log2 fold change: 1.04

## RRIRLRPPRLPRPRPRPKAQPRP
  shrunken log2 fold change: -0.00354

## RRIRSRPPRLPRPRPRPHKQPRP
  shrunken log2 fold change: -0.0702
